This is an account of results in article PMC7506991, “Timeless couples G‐quadruplex detection with processing by DDX11 helicase during DNA replication”.

Substitutions are numbered along the chain they refer to.

Data set [1] concerns the target T1, Timeless (optimised construct);Tipin (Homo sapiens;Homo sapiens, UniProt Q9UNS1;Q9BVW5 1-238+=GSTGST+331-1208;1-301, internal_change|). Description: fluorescence anisotropy; 150 mM KCl, 5 mM MgCl2; FA at 25 C, 10 nM DNA: DBD in 25 mM HEPES-NaOH pH 7.2, 150 mM KCl, 0.5 mM EDTA, 0.005% Tween-20; Timeless-Tipin in 25 mM HEPES pH 7.1, 150 mM KCl, 1 mM DTT, 5 mM MgCl2; EMSA in 25 mM HEPES pH 7.1, 150 mM KCl, 5 mM MgCl2, 1 mM DTT on ice, 1% agarose at 4 C. The note with it: protein: recombinant;recombinant, tags: His14-SUMO removed;His6-GST removed, copies: 1;1, label: 5' 6FAM. In general terms: In fluorescence polarisation assays a small probe gives low polarisation when free and higher when bound to something large.

The next data set addresses Timeless DBD (Homo sapiens, UniProt Q9UNS1 816-954). Description: fluorescence anisotropy; 150 mM KCl; FA at 25 C, 10 nM DNA: DBD in 25 mM HEPES-NaOH pH 7.2, 150 mM KCl, 0.5 mM EDTA, 0.005% Tween-20; Timeless-Tipin in 25 mM HEPES pH 7.1, 150 mM KCl, 1 mM DTT, 5 mM MgCl2; EMSA in 25 mM HEPES pH 7.1, 150 mM KCl, 5 mM MgCl2, 1 mM DTT on ice, 1% agarose at 4 C. Particulars: protein: recombinant, tags: His14-SUMO removed.

The target in data set [2] is T1, Timeless (optimised construct);Tipin. Description: EMSA; 5 uM protein, 5 uM DNA; FA at 25 C, 10 nM DNA: DBD in 25 mM HEPES-NaOH pH 7.2, 150 mM KCl, 0.5 mM EDTA, 0.005% Tween-20; Timeless-Tipin in 25 mM HEPES pH 7.1, 150 mM KCl, 1 mM DTT, 5 mM MgCl2; EMSA in 25 mM HEPES pH 7.1, 150 mM KCl, 5 mM MgCl2, 1 mM DTT on ice, 1% agarose at 4 C. Particulars: protein: recombinant;recombinant, tags: His14-SUMO removed;His6-GST removed, copies: 1;1, label: 5' 6FAM. (In general: In EMSA bound probe runs differently from free probe, usually more slowly.)

[3] abbreviates: G4 intramolecular with ssDNA flanks.

Usually Kd stands for the constant that tells how readily two partners part at equilibrium.

T1 sequence (Q9UNS1 other isoform, or with tags, fused parts or gaps |, chain 1 of 2): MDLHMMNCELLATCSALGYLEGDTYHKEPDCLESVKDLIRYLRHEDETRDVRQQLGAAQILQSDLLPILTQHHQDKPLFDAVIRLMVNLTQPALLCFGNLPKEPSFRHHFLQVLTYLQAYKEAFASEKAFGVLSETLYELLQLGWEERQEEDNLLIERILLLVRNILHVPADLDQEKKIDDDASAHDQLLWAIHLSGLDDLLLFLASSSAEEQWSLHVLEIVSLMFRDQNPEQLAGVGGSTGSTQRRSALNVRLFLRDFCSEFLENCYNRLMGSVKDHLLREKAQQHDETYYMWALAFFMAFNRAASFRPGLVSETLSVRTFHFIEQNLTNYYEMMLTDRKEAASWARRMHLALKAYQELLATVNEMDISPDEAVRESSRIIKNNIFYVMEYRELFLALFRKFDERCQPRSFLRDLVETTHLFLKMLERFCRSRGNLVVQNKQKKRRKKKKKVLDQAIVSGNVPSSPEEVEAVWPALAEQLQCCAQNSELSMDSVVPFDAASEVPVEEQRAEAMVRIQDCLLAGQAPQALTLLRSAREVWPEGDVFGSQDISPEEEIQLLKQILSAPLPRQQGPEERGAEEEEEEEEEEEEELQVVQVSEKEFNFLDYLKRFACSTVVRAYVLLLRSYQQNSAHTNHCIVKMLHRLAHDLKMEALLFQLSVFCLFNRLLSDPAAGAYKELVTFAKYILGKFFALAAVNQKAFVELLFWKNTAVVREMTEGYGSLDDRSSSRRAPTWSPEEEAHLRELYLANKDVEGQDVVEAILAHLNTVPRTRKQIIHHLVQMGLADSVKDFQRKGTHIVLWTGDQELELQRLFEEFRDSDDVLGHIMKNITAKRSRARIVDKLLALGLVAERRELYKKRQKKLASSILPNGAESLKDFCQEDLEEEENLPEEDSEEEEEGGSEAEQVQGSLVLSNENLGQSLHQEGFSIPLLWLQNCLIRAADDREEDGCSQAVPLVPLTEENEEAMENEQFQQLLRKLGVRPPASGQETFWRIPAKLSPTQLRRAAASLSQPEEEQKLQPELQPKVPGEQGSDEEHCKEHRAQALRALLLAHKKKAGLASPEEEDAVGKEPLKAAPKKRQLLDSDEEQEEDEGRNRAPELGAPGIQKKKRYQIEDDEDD
T1 sequence (Q9BVW5 whole entry, change not shown, chain 2 of 2): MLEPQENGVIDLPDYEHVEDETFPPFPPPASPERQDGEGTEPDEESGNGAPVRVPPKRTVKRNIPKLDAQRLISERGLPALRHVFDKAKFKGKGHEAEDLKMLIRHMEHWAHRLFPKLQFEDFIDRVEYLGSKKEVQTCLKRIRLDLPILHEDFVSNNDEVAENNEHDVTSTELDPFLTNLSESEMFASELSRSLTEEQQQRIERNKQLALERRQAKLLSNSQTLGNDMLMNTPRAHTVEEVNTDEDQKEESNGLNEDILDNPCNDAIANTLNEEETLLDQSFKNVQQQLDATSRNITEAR
Timeless DBD, sequence (Q9UNS1 816-954): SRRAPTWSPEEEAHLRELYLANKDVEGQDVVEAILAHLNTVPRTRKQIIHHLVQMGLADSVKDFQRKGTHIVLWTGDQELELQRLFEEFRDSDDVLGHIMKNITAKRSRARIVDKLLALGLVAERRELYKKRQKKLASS

In the case of ATAAGAGTGGTTAGAGTGTA (ssDNA) [ss20], the binding result in data set [1] (single strand) was “no binding”.

In the case of TGAGGGTGGGTAGGGTGGGTAA (structured_DNA) [G4 DNA (MYC, 1XAV) Cy3], the Kd with Timeless DBD (label: 3' Cy3, G4 intramolecular) is roughly 120 nM.

B1: ds20 (dsDNA)
DNA 1: ATAAGAGTGGTTAGAGTGTA
DNA 2: TACACTCTAACCACTCTTAT
Consider B1, for which the binding result in data set [1] (blunt) is “no binding”.

Regarding TGAGAGTGAGTAGAGTGAGTAA (ssDNA) [ssDNA (Fig 2D)], the binding result in the data set with Timeless DBD (single strand) was “binds”.

For the molecule TGAGGGTGGGTAGGGTGGGTAA (structured_DNA) [1XAV], the binding result in data set [1] (G4 intramolecular) is “binds”.

B2: dsDNA (Fig 2D) (dsDNA)
DNA 1: TGAGAGTGAGTAGAGTGAGTAA
DNA 2: TTACTCACTCTACTCACTCTCA
With B2, in the data set with Timeless DBD (blunt), the Kd is roughly 800 nM.

B3: ssG4 (structured_DNA)
DNA: ACGAGAGCTAGCACATTTTGAGGGTGGGTAGGGTGGGTAATTTTCACGTAGAACCTGT
For the molecule B3, the Kd in data set [1] (setting [3]) came to 600 ± 30 nM.

B4: ss (ssDNA)
DNA: B3 DNA with G23T, G26C, G27A, G32C, G35C, G36T
Take B4: the binding result in data set [2] (single strand) is given as “no binding”.

B5: BU1 +3.5 (structured_DNA)
DNA: AGCTAGCACATTTTAAGGGCTGGGTGGGTGCTGTCAAGGGCTGGGTTTTCACGTAGAA
As for B5, in data set [2] (setting [3]), the binding result is “binds”.

B6: ssHP (structured_DNA)
DNA: ACGAGAGCTAGCACATTTTGAGGCTGCGTTTCGCAGCCTCAATTTCACGTAGAACCTGT
As to B6, in data set [2] (hairpin with ssDNA flanks), the binding result is recorded as “no binding”.
